Source: patent publication US20140303084A1 (Biogen, published 2014)
Square brackets hold non-standard residues; d marks the D form. Primed or numbered codes have the meaning given here. Side chains are listed from the residue outwards. Ends that are not written are not given here. * marks the point of attachment. Biotin = O=C1N[C@H]2[C@H](CS[C@H]2CCCCC(=O)*)N1; PEG2(3) = PEG2 spacer carrying biotin on Lys; Pra = C#CC[C@H](N)C(=O)O; PEG4′ = PEG4 spacer

Target: human Factor IXa (human, UniProt P00740 47-191; P00740 227-461)
Experiment: cell-based or functional assay

Row | Binder | EC50 [µM], FXa generation assay
1 | PRIRTVGPGSRSASGKSTCLASYCWLFWTGIAX (not fully specified; D-Arg 4, D-Arg 11, C-terminal PEG4-Pra) [PRIrTVGPGSrSASGKSTCLASYCWLFWTGIA-PEG4-Pra] | < 0.5 µM
2 | SKQGRPIAPD[dR]RAAGKLTCLASYCWLFWTGIA (not fully specified; printed as SKQGRPIAPDrRAAGKLTCLASYCWLFWTGIA; cysteine pairing not given here) [SKQGRPIAPDrRAAGKLTCLASYCWLFWTGIA] | < 0.5 µM
3 | SKQGRPISPD[dR]RAAGKLTCLASYCWLFW (not fully specified; printed as SKQGRPISPDrRAAGKLTCLASYCWLFW; cysteine pairing not given here) [SKQGRPISPDrRAAGKLTCLASYCWLFW] | < 0.5 µM
4 | PRIRTVGPGSRSASGKLTCLASYCWLFWTGI | < 0.5 µM
5 | SKQGRPISPDRRAAGKLTCLASYCWLFWTGIA[PEG2(3)]K([PEG2(3)-Biotin]) (cysteine pairing not given here) [SKQGRPISPDRRAAGKLTCLASYCWLFWTGIA-PEG2-K(PEG2-Biotin)] | > 1 µM
6 | SKQARPISPD[dR]RAAGKLTCLASYCWLFWTGIA (not fully specified; printed as SKQARPISPDrRAAGKLTCLASYCWLFWTGIA; cysteine pairing not given here) [SKQARPISPDrRAAGKLTCLASYCWLFWTGIA] | > 1 µM
7 | SAQGRPISPD[dR]RAAGKLTCLASYCWLFWTGIA (not fully specified; printed as SAQGRPISPDrRAAGKLTCLASYCWLFWTGIA; cysteine pairing not given here) [SAQGRPISPDrRAAGKLTCLASYCWLFWTGIA] | < 0.5 µM
8 | SKQGRPISPD[dR]RAAGKLTCLASYCWLFWTG (not fully specified; printed as SKQGRPISPDrRAAGKLTCLASYCWLFWTG; cysteine pairing not given here) [SKQGRPISPDrRAAGKLTCLASYCWLFWTG] | < 0.5 µM
9 | GSVRRALFVAARAPAKLTCLASYCWLFWTGIA [GSVRRALFVA ARAPA KLTCLASYCWLFWTGIA] | < 0.5 µM
10 | SKQGAPISPD[dR]RAAGKLTCLASYCWLFWTGIA (not fully specified; printed as SKQGAPISPDrRAAGKLTCLASYCWLFWTGIA; cysteine pairing not given here) [SKQGAPISPDrRAAGKLTCLASYCWLFWTGIA] | < 0.5 µM
11 | SKQGRPISAD[dR]RAAGKLTCLASYCWLFWTGIA (not fully specified; printed as SKQGRPISADrRAAGKLTCLASYCWLFWTGIA; cysteine pairing not given here) [SKQGRPISADrRAAGKLTCLASYCWLFWTGIA] | < 0.5 µM
12 | SKAGRPISPD[dR]RAAGKLTCLASYCWLFWTGIA (not fully specified; printed as SKAGRPISPDrRAAGKLTCLASYCWLFWTGIA; cysteine pairing not given here) [SKAGRPISPDrRAAGKLTCLASYCWLFWTGIA] | < 0.5 µM
13 | SRI[dR]TVSPGS[dR]SASGKSTCLASYCWLFWTGIA (not fully specified; printed as SRIrTVSPGSrSASGKSTCLASYCWLFWTGIA; cysteine pairing not given here) [SRIrTVSPGSrSASGKSTCLASYCWLFWTGIA] | > 1 µM
14 | SKQGRAISPD[dR]RAAGKLTCLASYCWLFWTGIA (not fully specified; printed as SKQGRAISPDrRAAGKLTCLASYCWLFWTGIA; cysteine pairing not given here) [SKQGRAISPDrRAAGKLTCLASYCWLFWTGIA] | > 1 µM
15 | AKQGRPISPD[dR]RAAGKLTCLASYCWLFWTGIA (not fully specified; printed as AKQGRPISPDrRAAGKLTCLASYCWLFWTGIA; cysteine pairing not given here) [AKQGRPISPDrRAAGKLTCLASYCWLFWTGIA] | < 0.5 µM
16 | PTDTGPVISGLRAPGKLTCLASYCWLFWTGIA [PTDTGPVISG LRAPG KLTCLASYCWLFWTGIA] | < 0.5 µM
17 | PRIRTVSPGSRSASGKLTCLASYCWLFWTGIA | < 0.5 µM
18 | PRIRTVGPGSRSASGKLSCLASYCWLFWTGIA | < 0.5 µM
19 | PRIRTVGPGSRSASGKLTCLASYCWLFWTSIA | < 0.5 µM
20 | PRIRTVGPGSRSASGKLTCLASACWLFWTGIA | > 1 µM
21 | PRIRTVGPGSRSASGKLTCFASYCWLFWTGIA | > 1 µM
22 | PRIRTVGPGSRSASGKLTCLASYCWLFWTFIA | < 0.5 µM
23 | SRIRTVSPGSRSASGKSTCLASYCWLFWTGIA | < 0.5 µM

Row | Binder | EC50 [µM], FXa generation assay
24 | PRIRTVGPGSRSASGKLTCAASYCWLFWTGIA | > 1 µM
25 | PRIRTVGPGSRRASGKLTCLASYCWLFWTGIA | < 0.5 µM
26 | PRIRTVGPGSRSASGKLTCLASYCWLAWTGIA | > 1 µM
27 | PRIRTVGPGSRSASGKLTCLASYCWLFATGIA | < 0.5 µM
28 | PRIRTVGPGSRSASGKLTCLASYCWLFWSGIA | < 0.5 µM
29 | PRIRTVGPGSRSASGKLTCLASYCWLFWTLIA | < 0.5 µM
30 | PRIRTVGPGSRSASGKLTCLASYCWLFFTGIA | < 0.5 µM
31 | PRIRTVGSGSRSASGKLTCLASYCWLFWTGIA | < 0.5 µM
32 | PRIRTVGPGSRSASGKSTCLASYCWLFWTGIA | < 0.5 µM
33 | PRIRTVGPGSRSASGKLTCVASYCWLFWTGIA | > 1 µM
34 | SRIRTVGPGSRSASGKSTCLASYCWLFWTGIA | < 0.5 µM
35 | PRIRTVGPSSRSASGKLTCLASYCWLFWTGIA | < 0.5 µM
36 | SRSRTVSPGSRSASGKSTCLASYCWLFWTGIA | < 0.5 µM
37 | PRIRTVGPGSRSASGKLTCSASYCWLFWTGIA | > 1 µM
38 | PRSRTVGPGSRSASGKSTCLASYCWLFWTGIA | < 0.5 µM
39 | PRIRTVGPGSRSASGKLTCLASYCWLFLTGIA | < 0.5 µM
40 | PRIRTVSPGSRSASGKSTCLASYCWLFWTGIA | < 0.5 µM
41 | PRIRTVGPGSRSASGKLTCLASYCWLLWTGIA | < 0.5 µM
42 | [Pra][PEG4′]PRI[dR]TVGPGS[dR]SASGKSTCLASYCWLFWTGIA (not fully specified (C-terminus); printed as Pra-PEG4-PRIrTVGPGSrSASGKSTCLASYCWLFWTGIA; cysteine pairing not given here) [Pra-PEG4-PRIrTVGPGSrSASGKSTCLASYCWLFWTGIA] | > 1 µM
43 | SKQGRPISPD[dR]RAAGKLTCLASYCWLFWTGI (not fully specified; printed as SKQGRPISPDrRAAGKLTCLASYCWLFWTGI; cysteine pairing not given here) [SKQGRPISPDrRAAGKLTCLASYCWLFWTGI] | < 0.5 µM
44 | SKQGRPISPD[dR]RAAGKLTCLASYCWLFWT (not fully specified; printed as SKQGRPISPDrRAAGKLTCLASYCWLFWT; cysteine pairing not given here) [SKQGRPISPDrRAAGKLTCLASYCWLFWT] | < 0.5 µM
45 | RRFVGGSLSQRRAPGKLTCLASYCWLFWTGIA [RRFVGGSLSQ RRAPG KLTCLASYCWLFWTGIA] | < 0.5 µM
